Data as given in paper PMC10026030, “A short-chain acyl-CoA synthetase that supports branched-chain fatty acid synthesis in Staphylococcus aureus” (The Journal of Biological Chemistry, 2023).
Like-named read-outs stand apart in the source and are kept apart here.

What was measured:
[1] = target: T1, MbcS (methylbutyryl-CoA synthetase; SAUSA300_2542) (Staphylococcus aureus, UniProt A0A0H2XHR6); test: LC-MS/MS of acyl-CoA product, Michaelis-Menten fit; conditions: 2.5 mM ATP, 2.5 mM Mg2+, 200 μM CoA, Tris pH 7.5, 37 °C
T1 sequence (A0A0H2XHR6 1-532): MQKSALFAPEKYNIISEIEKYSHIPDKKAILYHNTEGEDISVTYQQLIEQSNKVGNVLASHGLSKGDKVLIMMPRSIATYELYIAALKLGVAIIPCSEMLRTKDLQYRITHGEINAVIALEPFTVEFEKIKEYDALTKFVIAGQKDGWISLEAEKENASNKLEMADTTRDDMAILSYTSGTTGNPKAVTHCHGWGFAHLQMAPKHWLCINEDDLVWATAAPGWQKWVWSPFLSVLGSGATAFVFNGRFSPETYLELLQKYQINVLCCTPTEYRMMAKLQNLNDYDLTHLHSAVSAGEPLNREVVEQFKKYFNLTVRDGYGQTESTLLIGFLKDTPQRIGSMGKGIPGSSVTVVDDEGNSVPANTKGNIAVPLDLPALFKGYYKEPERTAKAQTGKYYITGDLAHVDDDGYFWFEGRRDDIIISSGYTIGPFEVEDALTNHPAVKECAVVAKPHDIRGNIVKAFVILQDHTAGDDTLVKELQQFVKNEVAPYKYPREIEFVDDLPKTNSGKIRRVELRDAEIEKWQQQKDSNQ

purified protein [2] = substrate: Nc1ncnc2c1ncn2[C@@H]1O[C@H](COP(=O)(O)OP(=O)(O)OP(=O)(O)O)[C@@H](O)[C@H]1O; test: purified protein; conditions: 2.5 mM Mg2+, 200 μM CoA, 50 μM aC5, Tris pH 7.5, 37 °C
purified protein [3] = substrate: CC(C)(COP(=O)(O)OP(=O)(O)OC[C@H]1O[C@@H](n2cnc3c(N)ncnc32)[C@H](O)[C@@H]1OP(=O)(O)O)[C@@H](O)C(=O)NCCC(=O)NCCS; test: purified protein; conditions: 2.5 mM ATP, 2.5 mM Mg2+, 50 μM aC5, Tris pH 7.5, 37 °C
purified protein [4] = substrate: CCCC(=O)O; test: purified protein; conditions: 2.5 mM ATP, 2.5 mM Mg2+, 200 μM CoA, Tris pH 7.5, 37 °C

## CC(C)C(=O)O [iC4, isobutyrate]
[1]; read-out: apparent KM
  Km: < 10 µM

## CC(C)CC(=O)O [iC5, isovalerate]
[1]
  Km: > 500 µM

B1: MbcS (methylbutyryl-CoA synthetase; SAUSA300_2542) (Staphylococcus aureus subsp. aureus USA300) (protein)
chain: T1 sequence (A0A0H2XHR6 1-532)
Purified protein [2]
  Km: 3.2 ± 0.2 µM
Purified protein [3]
  Km: 49.3 ± 6.9 µM
Purified protein [4]
  Km: 144 µM
